Article PMC12703665, “A Trifunctional, Rare-Earth Theranostic Chelator Platform to Enable Diagnostic Nuclear Imaging, Surgical Resection, and Radiotherapy” (Journal of the American Chemical Society, 2025)
Like-named read-outs stand apart in the source and are kept apart here.

How the values were obtained:
[1] = LogD7.4 lipophilicity measurements (1-octanol/DPBS); assay type: physicochemical; conditions: 86Y-labeled tracer, 1-octanol/DPBS pH 7.4
Procedure: Figure S49. Chromatographic analysis of [177Lu]Lu-PSMA-617 and its corresponding non-radioactive reference complex. Absorbance of non-radioactive samples was monitored at 254 nm.
[161Tb]TbCl3 (9.34 µL, 4.0 mCi) and PSMA-617 (12.2 µL, 9.80 µM) were dissolved in a mixture of NaOAc buffer (20.0 µL, 1 M, pH 5.5), DMSO (20.0 µL) and water (38.4 µL). The resulting mixture was vortexed and heated at 80 °C for 20 minutes. Quantitative labeling was confirmed via radio-HPLC (Method D, Rt = 7.73 min – Absorbance monitored at 254 nm).
Figure S50. Chromatographic analysis of [161Tb]Tb-PSMA-617 and its corresponding non-radioactive […]
4.3 LogD7.4 Lipophilicity Measurements pepa-pic2, mepa-pic2, pepa2-pic and pepa2-pic-PSMA were radiolabeled with [86Y]YCl3 and formulated in DPBS 1X pH 7.4 at a concentration of 25-29 µCi/mL. […] Samples were centrifuged for 5 min at 5000 rpm to separate (also on this page, place not known: 02468101214161820 Time (min) Normalized Absorbance (a.u) Normalized Counts (cps) 02468101214161820 Time (min) Normalized Absorbance (a.u) Normalized Counts (cps)) […]
both layers. […] LogD7.4 values calculated according […]
Female BALB/c mice were purchased from Jackson Laboratory. Biodistribution profiles of Y-86 labeled mepa-pic2, pepa-pic2 and […] were first evaluated in healthy naïve mice. […]
Table S1. […] Values expressed as % ID/g. Error expressed as ± 1 SD for n = 4. […]

[2] = tested on: PC-3 PIP/flu (PSMA+/PSMA–) tumor xenografts
Procedure: For in vivo evaluation, athymic nude mice-bearing bilateral PC-3 PIP/flu (PSMA^+/PSMA^–) tumor xenografts were used (Figure ).
Representative PET-CT (Y-86) or SPECT (Lu-177, Tb-161) images were acquired at different time points starting as early as 0.5 h and up to 25-hours post administration of radiotracer. Mice were initially anesthetized with isoflurane gas at 4% isoflurane in oxygen and maintained during scans at 2.0%. PET-CT and SPECT images were normalized to units of percentage of injected dose per cubic centimeter and presented as maximum intensity projected scan (MIPS) images.
PET-CT scans were acquired in a Siemens Inveon Hybrid MicroPET/CT Scanner (Siemens Medical Solutions USA, Inc., Knoxville, TN), and image processing and region of interest (ROI) analysis conducted using the Inveon Research Workstation analysis software. ROI analysis of the PET/CT images was used to estimate tracer uptake in major organs or tissues, and quantitative results are given as percentage of injected dose per cubic centimeter (%ID/cc).
SPECT scans, on the other hand, were collected in a MILabs U-SPECT/CTUHR (ultra high-resolution) system and image processing was carried out using Imalytics preclinical image analysis software.

[3] = mouse, in vivo

Structure (SMILES): COCCOCCOCCOc1ccc(C#Cc2cc(CN3CCN(Cc4cccc(C(=O)O)n4)CCN(Cc4cc(SC[C@H](N)C(=O)NCCCCCC(=O)NCCCC[C@H](NC(=O)N[C@@H](CCC(=O)O)C(=O)O)C(=O)O)cc(C(=O)O)n4)CC3)nc(C(=O)O)c2)cc1 [[86Y]Y-pepa-pic2-C-Hex-KuE, metal not drawn]
- logD7.4 [1]: −2.98
- Bone (ROI) ([2]; 0.5 h): 1.3 ± 0.5 %ID/cc
- Heart (ROI) ([2]; 0.5 h): 1.7 ± 0.5 %ID/cc
- L. Kidney (ROI) ([2]; 0.5 h): 12.7 ± 1.6 %ID/cc
- Liver (ROI) ([2]; 0.5 h): 1.4 ± 0.5 %ID/cc
- Muscle (ROI) ([2]; 0.5 h): 0.8 ± 0.3 %ID/cc
- R. Kidney (ROI) ([2]; 0.5 h): 12.0 ± 2.4 %ID/cc
- Tumor + (ROI) ([2]; 0.5 h): 4.6 ± 1.7 %ID/cc
- accumulation in the PSMA- tumor (PET/CT) ([2]; 0.5 h post-injection): no significant accumulation
- Bone (ROI) ([2]; 1 h): 1.0 ± 0.5 %ID/cc
- Heart (ROI) ([2]; 1 h): 1.2 ± 0.3 %ID/cc
- L. Kidney (ROI) ([2]; 1 h): 12.2 ± 5.5 %ID/cc
- Liver (ROI) ([2]; 1 h): 1.1 ± 0.3 %ID/cc
- Muscle (ROI) ([2]; 1 h): 0.8 ± 0.4 %ID/cc
- R. Kidney (ROI) ([2]; 1 h): 11.9 ± 3.0 %ID/cc
- Tumor + (ROI) ([2]; 1 h): 4.4 ± 1.8 %ID/cc
- Bone (ROI) ([2]; 1.5 h): 0.8 ± 0.4 %ID/cc
- Heart (ROI) ([2]; 1.5 h): 1.0 ± 0.5 %ID/cc
- L. Kidney (ROI) ([2]; 1.5 h): 12.2 ± 3.4 %ID/cc
- Liver (ROI) ([2]; 1.5 h): 0.9 ± 0.4 %ID/cc
- Muscle (ROI) ([2]; 1.5 h): 0.6 ± 0.4 %ID/cc
- R. Kidney (ROI) ([2]; 1.5 h): 12.7 ± 2.9 %ID/cc
- Tumor + (ROI) ([2]; 1.5 h): 5.2 ± 1.8 %ID/cc
- Bone (ROI) ([2]; 4 h): 0.5 ± 0.3 %ID/cc
- Heart (ROI) ([2]; 4 h): 0.5 ± 0.3 %ID/cc
- L. Kidney (ROI) ([2]; 4 h): 8.8 ± 1.9 %ID/cc
- Liver (ROI) ([2]; 4 h): 0.7 ± 0.4 %ID/cc
- Muscle (ROI) ([2]; 4 h): 0.4 ± 0.2 %ID/cc
- R. Kidney (ROI) ([2]; 4 h): 8.8 ± 2.3 %ID/cc
- Tumor + (ROI) ([2]; 4 h): 5.2 ± 1.7 %ID/cc
- Bone (ROI) ([2]; 25 h): 0.3 ± 0.2 %ID/cc
- Heart (ROI) ([2]; 25 h): 0.1 ± 0.1 %ID/cc
- L. Kidney (ROI) ([2]; 25 h): 4.0 ± 1.2 %ID/cc
- Liver (ROI) ([2]; 25 h): 0.3 ± 0.2 %ID/cc
- Muscle (ROI) ([2]; 25 h): 0.3 ± 0.3 %ID/cc
- R. Kidney (ROI) ([2]; 25 h): 4.0 ± 1.2 %ID/cc
- Tumor + (ROI) ([2]; 25 h): 3.3 ± 1.0 %ID/cc
- probe remaining intact (urine metabolite analysis) [3]: > 93%
